For five variants, response results are on record in PMC7430671 (2020).

B1: RapZ_(1–279), BACTH fusion [E. coli] / full-length RNase E (RneFL), BACTH fusion [E. coli] (parent complex)
chain 1: MVLMIVSGRSGSGKSVALRALEDMGFYCVDNLPVVLLPDLARTLADREISAAVSIDVRNMPESPEIFEQAMSNLPDAFSPQLLFLDADRNTLIRRYSDTRRLHPLSSKNLSLESAIDKESDLLEPLRSRADLIVDTSEMSVHELAEMLRTRLLGKRERELTMVFESFGFKHGIPIDADYVFDVRFLPNPHWDPKLRPMTGLDKPVAAFLDRHTEVHNFIYQTRSYLELWLPMLETNNRSYLTVAIGCTGGKHRSVYIAEQLADYFRSRGKNVQSRHRTL
chain 2: not shown
B2: RapZ_(1–279), BACTH fusion [E. coli] / itself (parent complex)
chain: B1 chain 1

The first assay covers variants of B1. As to the kind of experiment: BACTH assay (β-galactosidase activity); top panel; T18-RapZ1-279 variant with T25-RneFL (pYG100); mean ± SD, n ≥ 2; parent: 1.7e+03; read off a plot.
Consider chain 1 L279G, for which the response is roughly 100 Miller units. For chain 1 T278G, chain 1 L279G, the response was roughly 50 Miller units. In the case of chain 1 T278G, the response was roughly 980 Miller units.

The next assay covers variants of B2. In words: BACTH assay (self-interaction; β-galactosidase activity); bottom panel; same RapZ1-279 variant fused to T18 and to T25; mean ± SD, n ≥ 2; parent: 4.1e+03; read off a plot.
Consider MVLMIVSGRSGSGKSVALRALEDMGFYCVDNLPVVLLPDLARTLADREISAAVSIDVRNMPESPEIFEQAMSNLPDAFSPQLLFLDADRNTLIRRYSDTRRLHPLSSKNLSLESAIDKESDLLEPLRSRADLIVDTSEMSVHELAEMLRTRLLGKRERELTMVFESFGFKHGIPIDADYVFDVRFLPNPHWDPKLRPMTGLDKPVAAFLDRHTEVHNFIYQTRSYLELWLPMLETNNRSYLTVAIGCTGGKHRSVYIAEQLADYFRSRGKNVQSRHRGL [chain 1 T278G], for which the response is roughly 4000 Miller units. On the same count and under the same terms, the value for MVLMIVSGRSGSGKSVALRALEDMGFYCVDNLPVVLLPDLARTLADREISAAVSIDVRNMPESPEIFEQAMSNLPDAFSPQLLFLDADRNTLIRRYSDTRRLHPLSSKNLSLESAIDKESDLLEPLRSRADLIVDTSEMSVHELAEMLRTRLLGKRERELTMVFESFGFKHGIPIDADYVFDVRFLPNPHWDPKLRPMTGLDKPVAAFLDRHTEVHNFIYQTRSYLELWLPMLETNNRSYLTVAIGCTGGKHRSVYIAEQLADYFRSRGKNVQSRHRTG [chain 1 L279G] was roughly 3300 Miller units.
